Laboratory results: patent publication US20160362672

T1: soluble tissue factor (sTF), P13726
T1 chain: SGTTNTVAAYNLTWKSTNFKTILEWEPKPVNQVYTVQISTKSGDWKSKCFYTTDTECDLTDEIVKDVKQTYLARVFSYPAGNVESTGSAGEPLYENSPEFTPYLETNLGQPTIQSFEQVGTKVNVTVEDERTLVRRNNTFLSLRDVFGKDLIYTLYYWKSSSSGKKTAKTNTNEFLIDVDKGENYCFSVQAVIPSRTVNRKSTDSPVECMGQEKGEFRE


Key:
[1] = biological target: T1, soluble tissue factor (sTF), P13726

Molecule | Concentration by Activity (ng/ml), aPTT based factor assay (FIX-/FXI/-XTEN_AE864) | Fraction Active (FIX-/FXI/-XTEN_AE864) | enhancement of clotting activity against FIX-XTEN without a cleavage site (aPTT based factor assay) (FIX-/FXI/-XTEN_AE864) | Concentration by Activity (ng/ml), aPTT based factor assay (FIX-DFTRVVG-XTEN_AE864) | Fraction Active (FIX-DFTRVVG-XTEN_AE864) | enhancement of clotting activity against FIX-XTEN without a cleavage site (aPTT based factor assay) (FIX-DFTRVVG-XTEN_AE864) | Concentration by Activity (ng/ml), aPTT based factor assay (FIX-KLTRAET-XTEN_AE864) | Fraction Active (FIX-KLTRAET-XTEN_AE864) | enhancement of clotting activity against FIX-XTEN without a cleavage site (aPTT based factor assay) (FIX-KLTRAET-XTEN_AE864) | FVIIa activity by soluble tissue factor (sTF) induced clotting (Stago STA-Clot FVIIa activity assay kit) [1]
FXI protease (activated factor XI, FXIa) | 11 ng/mL | 40% | In all three cases the presence of a FXI cleavage site enhanced the clotting activity by greater than 30-fold | 9 ng/mL | 34% | In all three cases the presence of a FXI cleavage site enhanced the clotting activity by greater than 30-fold | 7 ng/mL | 30% | In all three cases the presence of a FXI cleavage site enhanced the clotting activity by greater than 30-fold | 
FVIIa-AE288 (protein) AVFVTQEEAHGVLHRRRRANAFLEELRPGSLERECKEEQCSFEEAREIFKDAERTKLFWISYSDGDQCASSPCQNGGSCKDQLQSYICFCLPAFEGRNCETHKDDQLICVNENGGCEQYCSDHTGTKRSCRCHEGYSLLADGVSCTPTVEYPCGKIPILEKRNASKPQGRIVGGKVCPKGECPWQVLLLVNGAQLCGGTLINTIWVVSAAHCFDKIKNWRNLIAVLGEHDLSEHDGDEQSRRVAQVIIPSTYVPGTTNHDIALLRLHQPVVLTDHVVPLCLPERTFSERTLAFVRFSLVSGWGQLLDRGATALELMVLNVPRLMTQDCLQQSRKVGDSPNITEYMFCAGYSDGSKDSCKGDSGGPHATHYRGTWYLTGIVSWGQGCATVGHFGVYTRVSQYIEWLQKLMRSEPRPGVLLRAPFPGSPGTSESATPESGPGSEPATSGSETPGTSESATPESGPGSEPATSGSETPGTSESATPESGPGTSTEPSEGSAPGSPAGSPTSTEEGTSESATPESGPGSEPATSGSETPGTSESATPESGPGSPAGSPTSTEEGSPAGSPTSTEEGTSTEPSEGSAPGTSESATPESGPGTSESATPESGPGTSESATPESGPGSEPATSGSETPGSEPATSGSETPGSPAGSPTSTEEGTSTEPSEGSAPGTSTEPSEGSAPGSEPATSGSETPGTSESATPESGPGTSTEPSEGSAPGSSS |  |  |  |  |  |  |  |  |  | an activity equivalent to 112 U/ml of FVIIa activity
